From the supplement of paper PMC10567573

B1: MLL5 (parent)
chain: TYLCERCQPRNLDKERAVLLQRRK

Variants of: B1
Test: protein stability index of a GFP-peptide fusion (GPS, HEK-293T) (PSI 1-6); higher = more stable
Conditions: c terminus: a fixed tail appended
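Note: lentivirally expressed fusions sorted by FACS into six bins by GFP to DsRed ratio, PSI derived from sequencing read proportions per bin multiplied by bin number.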

| Variant | protein stability index |
| --- | --- |
| R23H | 2.05 |
| R23C | 2.31 |
| R23W | 2.39 |
| R23I | 2.57 |
| R23M | 2.16 |
| R23K | 2.91 |
| R23E | 1.72 |
| R23D | 1.76 |
| R23L | 1.47 |
| R23S | 2.35 |
| R23N | 2.36 |
| R23Y | 1.48 |
| R23F | 2.03 |
| R23P | 2.5 |
| R23G | 2.1 |
| Q21N | 2.42 |
| Q21I | 1.73 |
| Q21S | 1.99 |
| Q21Y | 2.04 |
| Q21H | 3.22 |

| Variant | protein stability index |
| --- | --- |
| Q21D | 2.78 |
| Q21R | 2.51 |
| Q21K | 2.64 |
| Q21G | 2.91 |
| Q21C | 2.02 |
| Q21T | 1.81 |
| Q21V | 1.84 |
| Q21M | 2.46 |
| Q21E | 2.09 |
| R22H | 2.28 |
| R22A | 2 |
| R22C | 2.08 |
| R22G | 1.98 |
| R22Y | 1.97 |
| R22K | 2.03 |
| R22S | 2.34 |
| R22I | 2.44 |
| R22N | 1.99 |
| R22L | 1.89 |
| R22W | 2.14 |

| Variant | protein stability index |
| --- | --- |
| R22P | 2.9 |
| R22T | 2.1 |
| R22D | 2.2 |
| R22V | 1.98 |
| R22E | 1.76 |
| R22M | 2.18 |
| K24Q | 2.65 |
| K24D | 2.36 |
| K24E | 2.25 |
| K24P | 2.38 |
| K24W | 3.28 |
| K24I | 1.6 |
| K24M | 1.81 |
| K24A | 1.73 |
| K24H | 2.74 |
| K24Y | 1.91 |
| K24T | 2.28 |
| K24G | 1.69 |
| K24L | 2.17 |
